Reference: PMC7612376, “Structural basis of meiotic chromosome synaptic elongation through hierarchical fibrous assembly of SYCE2-TEX12” (Nature structural & molecular biology, 2021)
Numbering of substitutions follows the chain as printed. In names and notes the source's numbering stands.

B1: TEX12 core F102A F109A V116A (domain or fragment, human, UniProt Q9BXU0 49-123, looked up)
chain: KDEALEKDLNDVSKEINLMLSTYAKLLSERAAVDASYIDEIDELFKEANAIENALIQKREALRQRFTAIANTLHR
notes: TEX12, human, core, residues 49-123, with F102A, F109A and V116A; also called FFV (core); source: E. coli BL21 (DE3), co-expressed with SYCE2, purified (Ni-NTA, amylose, ion exchange, SEC); not shown: His6, N-terminal, cleaved
B2: SYCE2-TEX12 core wild-type, 2:2 building block (complex, human)
chain 1: GLYFSSLDSSIDILQKRAQELIENINKSRQKDHALMTNFRNSLKTKVSDLTEKLEERIYQIYNDHNKIIQEKLQEFTQKMAKISHLETELKQVCHSVETVYKDLCLQPE
chain 2: B1 chain with A54F, A61F, A68V
notes: SYCE2, human, core, residues 57-165; TEX12, human, core, residues 49-123; in solution it is found as 4:4 complex and larger assemblies, which are the rows of this molecule with itself; also called core complex; wild-type core; source: E. coli BL21 (DE3), co-expressed, purified (Ni-NTA, amylose, ion exchange, SEC); not shown: MBP, N-terminal, cleaved; His6, N-terminal, cleaved; copies: 2 + 2
B3: SYCE2-TEX12 core wild-type MBP-fusion, 2:2 building block (complex, human)
chain 1: B2 chain 1
chain 2: B1 chain with A54F, A61F, A68V
notes: SYCE2, human, core, residues 57-165; TEX12, human, core, residues 49-123; m6 + m16; found as a 4:4 complex in solution; also called SYCE2-TEX12 core MBP-fusion wild-type; source: E. coli BL21 (DE3), co-expressed, purified; not shown: MBP, N-terminal, kept; copies: 2 + 2
B4: TEX12 core (49-123) of the SYCE2-TEX12 core MBP-fusion proteins (domain or fragment, human, UniProt Q9BXU0 49-123, looked up)
chain: B1 chain with A54F, A61F, A68V
notes: TEX12, human, core, residues 49-123; also called TEX12 core in the MBP-fusion complexes; source: E. coli BL21 (DE3), co-expressed with MBP-SYCE2, purified
B5: SYCE2-TEX12 core H89E/Y115E, 2:2 building block (complex, human)
chain 1: B2 chain 1 with H33E, Y59E
chain 2: B1 chain with A54F, A61F, A68V
notes: SYCE2, human, core, residues 57-165, with H89E and Y115E; TEX12, human, core, residues 49-123; m4 + m8; also called H89E Y115E mutation; source: E. coli BL21 (DE3), co-expressed, purified (Ni-NTA, amylose, ion exchange, SEC); not shown: MBP, N-terminal, cleaved; His6, N-terminal, cleaved; copies: 2 + 2
B6: TEX12 core L110E F114E I117E L121E (domain or fragment, human, UniProt Q9BXU0 49-123, looked up)
chain: B1 chain with A54F, A61F, L62E, F66E, A68V, I69E, L73E
notes: TEX12, human, core, residues 49-123, with L110E, F114E, I117E and L121E; also called LFIL (core); source: E. coli BL21 (DE3), co-expressed with SYCE2, purified (Ni-NTA, amylose, ion exchange, SEC); not shown: His6, N-terminal, cleaved
B7: TEX12 ΔCtip (amino-acids 1-113) (domain or fragment, human, UniProt Q9BXU0 1-113, looked up)
chain: MMANHLVKPDNRNCKRPRELESPVPDSPQLSSLGKSDSSFSEISGLFYKDEALEKDLNDVSKEINLMLSTYAKLLSERAAVDASYIDEIDELFKEANAIENFLIQKREFLRQR
notes: TEX12, human, ΔCtip, residues 1-113; also called TEX12 ΔCtip truncation; source: E. coli BL21 (DE3), co-expressed with SYCE2, purified (Ni-NTA, amylose, ion exchange, SEC); not shown: His6, N-terminal, cleaved
B8: TEX12 core ΔCtip (49-113) of the SYCE2-TEX12 core MBP-fusion proteins (domain or fragment, human, UniProt Q9BXU0 49-113, looked up)
chain: KDEALEKDLNDVSKEINLMLSTYAKLLSERAAVDASYIDEIDELFKEANAIENFLIQKREFLRQR
notes: TEX12, human, core ΔCtip, residues 49-113; also called ΔCtip in the MBP-fusion complex; source: E. coli BL21 (DE3), co-expressed with MBP-SYCE2, purified
B9: TEX12 core ΔCtip (amino-acids 49-113) (domain or fragment, human, UniProt Q9BXU0 49-113, looked up)
chain: B8 chain
notes: TEX12, human, core ΔCtip, residues 49-113; source: E. coli BL21 (DE3), co-expressed with SYCE2, purified (Ni-NTA, amylose, ion exchange, SEC); not shown: His6, N-terminal, cleaved
B10: SYCE2-TEX12 core ΔS2C/ΔCtip 2:2 complex (complex, human)
chain 1: GLYFSSLDSSIDILQKRAQELIENINKSRQKDHALMTNFRNSLKTKVSDLTEKLEERIYQIYNDHNKIIQEKLQEFTQKMAKISHLETELKQVCHSVE
chain 2: B8 chain
notes: SYCE2, human, ΔS2C, residues 57-154; TEX12, human, core ΔCtip, residues 49-113; m3 + m10; also called ΔS2C/ΔCtip core complex; source: E. coli BL21 (DE3), co-expressed, purified (Ni-NTA, amylose, ion exchange, SEC); not shown: MBP, N-terminal, cleaved; His6, N-terminal, cleaved; copies: 2 + 2
B11: SYCE2 core (amino-acids 57-165) (domain or fragment, human, UniProt Q6PIF2 57-165, looked up)
chain: B2 chain 1
notes: SYCE2, human, core, residues 57-165; also called SYCE2 structural core; source: E. coli BL21 (DE3), co-expressed with TEX12, purified (Ni-NTA, amylose, ion exchange, SEC); not shown: MBP, N-terminal, cleaved
B12: TEX12 full-length (1-123) (natural protein, human, UniProt Q9BXU0 1-123, looked up)
chain: MMANHLVKPDNRNCKRPRELESPVPDSPQLSSLGKSDSSFSEISGLFYKDEALEKDLNDVSKEINLMLSTYAKLLSERAAVDASYIDEIDELFKEANAIENFLIQKREFLRQRFTVIANTLHR
notes: TEX12, human, full-length, residues 1-123; source: E. coli BL21 (DE3), co-expressed with SYCE2, purified (Ni-NTA, amylose, ion exchange, SEC); not shown: His6, N-terminal, cleaved
B13: SYCE2-TEX12 full-length wild-type, 2:2 building block (complex, human)
chain 1: MERQGVDVPHVKCKDQEPQPLGESKEHPRWEENCEEEAGGGPASASCQLTVLEGKSGLYFSSLDSSIDILQKRAQELIENINKSRQKDHALMTNFRNSLKTKVSDLTEKLEERIYQIYNDHNKIIQEKLQEFTQKMAKISHLETELKQVCHSVETVYKDLCLQPEQSLRLRWGPDHSRGKSPPRPGNSQPPDVFVSSVAETTSQATASEVQTNRDGEC
chain 2: B12 chain
notes: SYCE2, human, full-length, residues 1-218; TEX12, human, full-length, residues 1-123; m2 + m9; also called full-length SYCE2-TEX12; source: E. coli BL21 (DE3), co-expressed, purified (Ni-NTA, amylose, ion exchange, SEC); not shown: MBP, N-terminal, cleaved; His6, N-terminal, cleaved; copies: 2 + 2
B14: SYCE2-TEX12 full-length FFV (TEX12 F102A F109A V116A), 2:2 building block (complex, human)
chain 1: B13 chain 1
chain 2: B12 chain with F102A, F109A, V116A
notes: SYCE2, human, full-length, residues 1-218; TEX12, human, full-length, residues 1-123, with F102A, F109A and V116A; m2 + m14; source: E. coli BL21 (DE3), co-expressed, purified (Ni-NTA, amylose, ion exchange, SEC); not shown: MBP, N-terminal, cleaved; His6, N-terminal, cleaved; copies: 2 + 2
B15: TEX12 full-length L110E F114E I117E L121E (natural protein, human, UniProt Q9BXU0 1-123, looked up)
chain: B12 chain with L110E, F114E, I117E, L121E
notes: TEX12, human, full-length, residues 1-123, with L110E, F114E, I117E and L121E; also called LFIL (full-length); source: E. coli BL21 (DE3), co-expressed with SYCE2, purified (Ni-NTA, amylose, ion exchange, SEC); not shown: His6, N-terminal, cleaved
B16: TEX12 full-length F102A F109A V116A (natural protein, human, UniProt Q9BXU0 1-123, looked up)
chain: B12 chain with F102A, F109A, V116A
notes: TEX12, human, full-length, residues 1-123, with F102A, F109A and V116A; also called FFV (full-length); source: E. coli BL21 (DE3), co-expressed with SYCE2, purified (Ni-NTA, amylose, ion exchange, SEC); not shown: His6, N-terminal, cleaved

Legend:
[1] = biological target: SYCE2-TEX12 core ΔCtip 2:2 complex (human) (UniProt Q6PIF2); assay: SEC-MALS; co-purified complexes at >1 mg/ml on Superdex 200 Increase 10/300 GL in 20 mM Tris pH 8.0, 150 mM KCl, 2 mM DTT; in Fig. 1 core at 200 uM and full-length at 100 uM (4 mg/ml)
[2] = biological target: SYCE2-TEX12 core FFV (TEX12 F102A F109A V116A), 2:2 building block (human) (UniProt Q6PIF2); assay: as above
[3] = biological target: SYCE2-TEX12 full-length ΔCtip 2:2 complex (human) (UniProt Q6PIF2); assay: as above
[4] = biological target: B11; assay: as above; settings: both partners purified
[5] = biological target: the molecule itself; assay: as above
[6] = biological target: T1, MBP-SYCE2 core ΔS2C (57-154) fusion protein (human, UniProt Q6PIF2 57-154); assay: as above; settings: both partners purified
T1 construct: SYCE2, human, ΔS2C, residues 57-154; also called ΔS2C MBP-fusion, SYCE2 chain; source: E. coli BL21 (DE3), co-expressed with TEX12, purified; not shown: MBP, N-terminal, kept
T1 sequence (looked up): B10 chain 1

[7] = biological target: T2, MBP-SYCE2 core (57-165) fusion protein (human, UniProt Q6PIF2 57-165); assay: as above; settings: both partners purified
T2 construct: SYCE2, human, core, residues 57-165; also called SYCE2-TEX12 core MBP-fusion, SYCE2 chain; source: E. coli BL21 (DE3), co-expressed with TEX12, purified; not shown: MBP, N-terminal, kept
T2 sequence (looked up): B2 chain 1

[8] = biological target: T3, SYCE2 full-length (1-218) (human, UniProt Q6PIF2 1-218); assay: as above; settings: both partners purified
T3 construct: SYCE2, human, full-length, residues 1-218; source: E. coli BL21 (DE3), co-expressed with TEX12, purified (Ni-NTA, amylose, ion exchange, SEC); not shown: MBP, N-terminal, cleaved
T3 sequence (looked up): B13 chain 1

[9] = biological target: T4, SYCE2 core ΔS2C (amino-acids 57-154) (human, UniProt Q6PIF2 57-154); assay: as above; settings: both partners purified
T4 construct: SYCE2, human, ΔS2C, residues 57-154; source: E. coli BL21 (DE3), co-expressed with TEX12, purified (Ni-NTA, amylose, ion exchange, SEC); not shown: MBP, N-terminal, cleaved
T4 sequence (looked up): B10 chain 1

[10] = biological target: the molecule itself; assay: crystal structure; SYCE2-TEX12 core ΔCtip 2:2 complex, 33 mg/ml, 35 % MPD, 20°C; space group P21; PDB 6R17

SYCE2-TEX12 core ΔCtip 2:2 complex (from UniProt Q6PIF2 57-165; Q9BXU0 49-113)
percent of total mass as 2:2 complex (not self-associated) [1]: 98%
percent of total mass as 4:4 complex [1]: 2%
stoichiometry N (2:2 building blocks) [1]: 2

SYCE2-TEX12 core FFV (TEX12 F102A F109A V116A), 2:2 building block (from UniProt Q6PIF2 57-165; Q9BXU0 49-123) (complex)
stoichiometry N (2:2 building blocks) [2]: 2

SYCE2-TEX12 full-length ΔCtip 2:2 complex (from UniProt Q6PIF2 1-218; Q9BXU0 1-113)
percent of total mass as 2:2 complex (not self-associated) [3]: 98%
percent of total mass as 4:4 complex [3]: 2%
stoichiometry N (2:2 building blocks) [3]: 2

B1
stoichiometry N [4]: 1 TEX12 per SYCE2 (4:4)

B2
percent of total mass as 4:4 complex [5]: 75%
stoichiometry N [5]: 2 2:2 building blocks

B3
stoichiometry N [5]: 2 2:2 building blocks

B4
stoichiometry N [6]: 1 TEX12 per SYCE2 (2:2)
stoichiometry N [7]: 1 TEX12 per SYCE2 (4:4)

B5
percent of total mass as 2:2 complex (not self-associated) [5]: 60%
percent of total mass as 4:4 complex [5]: 40%
stoichiometry N [5]: 2 2:2 building blocks

B6
stoichiometry N [4]: 1 TEX12 per SYCE2 (2:2)

B7
stoichiometry N [8]: 1 TEX12 per SYCE2 (2:2)

B8
stoichiometry N [7]: 1 TEX12 per SYCE2 (2:2)

B9
stoichiometry N [9]: 1 TEX12 per SYCE2 (2:2)
stoichiometry N [4]: 1 TEX12 per SYCE2 (2:2)
binding result [10]: binds

B10
percent of total mass as 2:2 complex (not self-associated) [5]: 86%
percent of total mass as 4:4 complex [5]: 14%
stoichiometry N [5]: 2 2:2 building blocks

B11
binding result [10]: binds

B12
stoichiometry N [8]: 1 TEX12 per SYCE2 (2:2)

B13
percent of total mass as 2:2 complex (not self-associated) [5]: 12%
percent of total mass as 4:4 complex [5]: 18%
stoichiometry N [5]: 2 2:2 building blocks

B14
percent of total mass as 2:2 complex (not self-associated) [5]: 15%
percent of total mass as 4:4 complex [5]: 20%
stoichiometry N [5]: 2 2:2 building blocks

B15
stoichiometry N [8]: 1 TEX12 per SYCE2 (2:2)

B16
stoichiometry N [8]: 1 TEX12 per SYCE2 (2:2)
